Assay results from FireProtDB (doi:10.1016/j.bpc.2005.09.016).
Where “and” joins values, the source holds several entries; their conditions need not be identical. Equal entries are not always repeated.

Settings: Aspergillus oryzae (strain ATCC 42149 / RIB 40), 25 °C, CD, Glycine hydrochloride 0.05 M, reversible: Yes, whole UniProt chain shown

B1: Guanyl-specific ribonuclease T1 wild type, P00651 (protein)
chain: MMYSKLLTLTTLLLPTALALPSLVERACDYTCGSNCYSSSDVSTAQAAGYQLHEDGETVGSNSYPHKYNNYEGFDFSVSSPYYEWPILSSGDVYSGGSPGADRVVFNENNQLAGVITHTGASGNNFVECT
denaturant m value (pH 3, Urea): 1.57 kcal/mol/M and 1.73 kcal/mol/M and 2.04 kcal/mol/M | denaturant midpoint (higher = more stable) (pH 3, Urea): 3.8 M and 3.2 M and 3.1 M | unfolding free energy (pH 3, Urea): 6.01 kcal/mol and 5.54 kcal/mol and 6.36 kcal/mol | denaturant midpoint (higher = more stable) (pH 5.5, GdnHCl): 4.3 M and 3.7 M | unfolding free energy (pH 5.5, GdnHCl): 9.29 kcal/mol and 9.48 kcal/mol and 9.37 kcal/mol | denaturant midpoint (higher = more stable) (pH 6, GdnHCl): 3.8 M and 3.7 M | unfolding free energy (pH 6, GdnHCl): 10.2 kcal/mol
